# B1: Gus protein: β-Glucuronidase (GUS; Sigma Aldrich, Escherichia coli Type VII-A), cargo used alone (protein, UniProt P05804 1-603, looked up)
# Beta-glucuronidase: MLRPVETPTREIKKLDGLWAFSLDRENCGIDQRWWESALQESRAIAVPGSFNDQFADADIRNYAGNVWYQREVFIPKGWAGQRIVLRFDAVTHYGKVWVNNQEVMEHQGGYTPFEADVTPYVIAGKSVRITVCVNNELNWQTIPPGMVITDENGKKKQSYFHDFFNYAGIHRSVMLYTTPNTWVDDITVVTHVAQDCNHASVDWQVVANGDVSVELRDADQQVVATGQGTSGTLQVVNPHLWQPGEGYLYELCVTAKSQTECDIYPLRVGIRSVAVKGEQFLINHKPFYFTGFGRHEDADLRGKGFDNVLMVHDHALMDWIGANSYRTSHYPYAEEMLDWADEHGIVVIDETAAVGFNLSLGIGFEAGNKPKELYSEEAVNGETQQAHLQAIKELIARDKNHPSVVMWSIANEPDTRPQGAREYFAPLAEATRKLDPTRPITCVNVMFCDAHTDTISDLFDVLCLNRYYGWYVQSGDLETAEKVLEKELLAWQEKLHQPIIITEYGVDTLAGLHSMYTDMWSEEYQCAWLDMYHRVFDRVSAVVGEQVWNFADFATSQGILRVGGNKKGIFTRDRKPKSAAFLLQKRWTGMNFGEKPQQGGKQ
# System: isolated microspores of Triticale (variety Sunray)
# Test: CPP delivery of GUS enzyme into isolated microspores, GUS staining
# Type: cell-based
# Conditions: GUS enzyme cargo:CPP 1:4, 1 hour at 37° C., three repeats
# Experimental: Triticale line Sunray grown in a growth cabinet with a photoperiod of 19 h day (intensity 300 μE m-2 s-1), and temperature 18-15° C. (day-night) with a relative humidity at about 70% was used as the donor plant material. The plants were fertilized every 2 weeks (20-20-20, 200 ppm) and treated with 2.5 ml I-1 Tilt™ (propiconazole, Syngenta) during the tillering stage and Intercept™ (0.004 g per litre of soil, Imidacloprid, Bayer) once sufficient root development was established. The first 10 tillers from each pot were harvested when the spike was at 3-4 cm, depending on the crop, from emergence from the boot. These tillers (to be used for microspore isolation) were subjected to pre-treatment in a refrigerator (4° C.) for 21 days with their bases in distilled water and their heads wrapped in aluminum foil. After 21±3 days of pre-treatment, the spikes were excised from their tillers and after an evaluation of their general appearance, only the most homogenous spikes were used. After confirming microspores at mid to bi-nucleate stage from a median floret, using acetocarmine staining, the tillers were processed for extraction.
# Awns were removed with scissors in a laminar flow hood. […] After counting the cells using a haemocytometer, aliquots of 100,000 cells in 200 μl volume were prepared in 2 ml microcentrifuge tubes to be ready for transduction. […]
molecule,measurement,value
B1,Average Transduction Efficiency,not capable of transducing itself

# Source: US20160340683A1, “NANOCARRIER BASED PLANT TRANSFECTION AND TRANSDUCTION” (HER MAJESTY THE QUEEN IN RIGHT OF CANADA AS REPRESENTED BY …, priority 2007, published 2016)
